Reference: patent US7361741 (LIPTON DIVISION OF CONOPCO, dated 2008)

T1: Human Pancreatic Lipase (human, UniProt P16233 17-465, in ELISA and phage selections: biotin (EZ link NHS-biotin) on free NH2-groups, molar ratio biotin to lipase 15 to 1; not biotinylated in the enzyme activity assay)
T1 construct: mature; Natural enzyme purified from a human source; In ELISA it was captured as biotinylated HPL on coated streptavidin; also called HPL; biotinylated HPL
T1 sequence (looked up): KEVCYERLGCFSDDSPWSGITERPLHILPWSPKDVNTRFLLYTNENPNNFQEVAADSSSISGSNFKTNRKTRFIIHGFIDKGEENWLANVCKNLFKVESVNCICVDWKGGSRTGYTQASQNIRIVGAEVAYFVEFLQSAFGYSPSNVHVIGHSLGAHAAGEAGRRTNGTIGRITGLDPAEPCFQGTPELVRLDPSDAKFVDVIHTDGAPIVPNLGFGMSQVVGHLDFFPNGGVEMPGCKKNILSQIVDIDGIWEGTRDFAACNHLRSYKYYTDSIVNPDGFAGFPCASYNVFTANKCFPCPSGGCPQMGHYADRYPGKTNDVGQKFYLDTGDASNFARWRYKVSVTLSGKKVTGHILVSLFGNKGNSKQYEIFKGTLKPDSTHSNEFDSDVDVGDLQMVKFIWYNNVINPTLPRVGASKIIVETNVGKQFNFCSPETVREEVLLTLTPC


What was measured:
Human Pancreatic Lipase [1] = target: T1, Human Pancreatic Lipase; test: ELISA, yeast culture medium on biotinylated HPL captured by streptavidin
Description: For ELISA in vitro biotinylated HPL (prepared as described in paragraph 2.2) was immobilised indirectly via streptavidin. Streptavidin was coated at 5 µg/ml in Phosphate Buffered Saline (PBS) during two hours at room temperature in MAXISORB plates (NUNC). The coat solution was removed and, after washing with 0.05 vol % Tween-20 in PBS (PBST), the wells were blocked during 30 minutes at room temperature with a 4 wt % skimmed milk solution made in PBS. Biotinylated HPL was captured by the coated streptavidin during 16 hours at 4° C. from a solution with a concentration of 2.5 µg/ml enzyme in PBST, followed by washing of the plate with PBTS to remove free biotinylated HPL.
Two clones from each construct were grown for 24 hours at 30° C. in YNB medium (0.67% Yeast Nitrogen without amino acids (Difio)) containing 2% glucose. For V_HH gene expression both pre-cultures were diluted 1/10 in 1 ml of YPD medium (1% yeast extract, 2% peptone, 2% glucose, 2% galactose) for induction of the GAL7 promoter and grown during 48 hours at 30° C. using 8 wells culture plates for cultivation. The V_HH production in the medium fraction of these clones was examined by analysis on a Coomassie blue stained polyacrylamide gel. Their functional characteristics were confirmed in ELISA on indirectly immobilised biotinylated HPL and in the lipase enzyme activity assay.

Human Pancreatic Lipase [2] = target: T1, Human Pancreatic Lipase; test: phage display selection in solution with biotinylated HPL, capture on streptavidin beads
Description: Free V_HH fragments were removed by precipitation of phage from the culture supernatant with PEG6000, thereby avoiding a disturbing competition between phage bound and free V_HH fragments. "In solution" capture of *E. coli* phage exposing HPL specific antibody fragments was performed with in vitro biotinylated lipase (EZ link NHS-biotin) covalently coupled to free NH_2-groups of the lipase according to the instructions of the supplier; the molar ratio between biotin and lipase was 15 to 1). For selection 15 nM and 40 nM Human Pancreatic Lipase was used in round one and 0.6 nM and 3 nM in round two. The carboxy terminal domain was prepared by proteolysis with chymotrypsin and purified with reversed phase HPLC. Lipase was biotinylated and used for selection of the immune library (combined short hinge and long hinge) at 15 and 70 nM during round one and at 1 and 3 and 15 nM during round two. During the binding phase of the selection "application conditions" (inclusion of 5.3 mM cholic acid and 36 mM deoxycholate) were used.

protein A = target: T2, protein A (UniProt P38507 37-477); test: affinity chromatography on protein A sepharose
T2 construct: also called protein A sepharose (Pharmacia)

Human Pancreatic Lipase [3] = target: T1, Human Pancreatic Lipase; test: ELISA on biotinylated HPL, E. coli and yeast produced VHH

Binder | binding result (Human Pancreatic Lipase [1]) | also measured
HPL#15 (VHH, Llama VHH; E. coli form (pUR5095): with hinge and myc-tag; Yeast forms: PstI/BstEII fragment, untagged (pUR1403) or with myc/His6 tags (pUR5097); also called anti-HPL VHH fragment HPL#15) VHH: QVQLQESGGGLVQAGGSLRLSCAASGSISSINVMGWFRQAPGKQRELVASITSGGSTNYADSLKGRFTISRDNAKNAVYLQMNNLKPEDTAVYYCNAHITPAGSSNYVYGYWGHGTKVTVSS | binds | 
HPL#18 (VHH, Llama VHH; E. coli form (pUR5086): with hinge and myc-tag; Yeast forms: PstI/BstEII fragment, untagged (pUR5092) or with myc/His6 tags (pUR5263); also called anti-HPL18; αHPL18) VHH: QVQLQDSGGGLVQAGGSLRLSCAASGTIGDIYTMAWHRQAPGKERELVASATESGSPNYADPVKGRFTISRDNGKLTVYLQMNSLKPEDTAVYYCNALIRRKFTSEYNEYWGQGTQVTVSS | binds | 
HPL#12 (VHH, Llama VHH produced in E. coli from the phagemid, with hinge and C-terminal myc-tag; also called anti-HPL VHH fragment HPL#12) VHH: QVQLQESGGGLVQAGGSLRLSCAASGSIGSIHTMGWYRQTPGKERDVVATIQDGGSTNYADSVKGRFTISRDNTLNTVYLQMNDLKPEDTAVYYCNADVRPYRTSRYLEVWGQGTLVTVSS |  | binding result (Human Pancreatic Lipase [2]): binds
HPL#14 (VHH, Llama VHH; Yeast form (pUR5265): PstI/NotI fragment including the hinge region, followed by myc- and hexahistidine tags; also called anti-HPL VHH fragment HPL#14) VHH: QVQLQESGGGLVQAGGSLRLSCAASGSIGSIHTMGWYRQTPGTERDVVATIQDGGSTNYADSVKGRFTISRDNILNTVYLQMNSLKPEDTAVYHCNADVRPYRTSRYLELWGQGTLVTVSS | binds | 
HPL#11 (VHH, Llama VHH; E. coli form (pUR5084): VHH with hinge and C-terminal myc-tag; Yeast forms: PstI/BstEII VHH fragment, untagged (pUR5091) or with myc-tag and hexahistidine tail (pUR5099); also called anti-HPL VHH fragment HPL#11) VHH: QVQLQDSGGGLVQAGGSLRLSCAASGSIFSSDLMGWYRQAPGKEREAVARITRGGTTSYADSVKGRFTISRDNAKNTMYLQMNSLKPEDTAVYYCNARRSNYDRSWGDYWGQGTQVTVSS |  | binding result (Human Pancreatic Lipase [2]): binds
HPL#19 (VHH, Llama VHH; E. coli form (pUR5087): with hinge and myc-tag; Yeast forms: PstI/BstEII fragment, untagged (pUR5093) or with myc/His6 tags (pUR5264); also called anti-HPL VHH fragment HPL#19) VHH: QVQLQDSGGGLVQTGGSLRLSCAASGPIGDVYLMGWYRQAPGKQREMVASITATGPPNYTDSVKGRFTISRDNDKNTEYLQMNNLKPEDTAVYYCNAQVRVRFSSDYTNYWGQGTQVTVSSEPKTPKPQP | binds | binding result (protein A): no binding
HPL#13 (VHH, Llama VHH; E. coli form (pUR5082): with hinge and myc-tag; Yeast forms: PstI/BstEII fragment, untagged (pUR5090) or with myc/His6 tags (pUR5098); also called anti-HPL VHH fragment HPL#13) VHH: QVQLQESGGGLVQAGGSLRLSCAASGTILSIIYMDWYRQTPGKQRELVGRITAGGSTNYADSAKGRFTISKDNAKNTVYLQMNSLKPEDTAVYYCNALITRWDKSVNDYWGQGTQVTVSS |  | binding result (Human Pancreatic Lipase [3]): binds
